{"source": "patent US20220143140A1", "about": "“ANTI-CD6 ANTIBODY COMPOSITIONS AND METHODS FOR TREATING LUPUS” (Equillium, Inc., priority 2019, published 2022)", "tested_on": "subjects with active lupus nephritis", "assay": "Clinical trial: urinary soluble CD6 and soluble ALCAM before and after EQ001", "type": "in vivo, human", "method": "30 ml of urine is collected from a patient (or control individual) and treated with a protease inhibitor cocktail tablet on ice (MiliporeSigma, Burlington, Mass., USA) according to manufacturer's instructions. The sample is centrifuged at 10,000×g for 1 min or 5,000×g for 2 min, and the urine is removed from any pellet, aliquoted, and quick frozen in a dry ice/methanol bath and stored at −80° C. until use.\nSeveral suitable ELISA kits are available commercially and are suitable for use in detecting soluble ALCAM and soluble CD6. For example, human ALCAM DuoSet ELISA (R&D Systems, Minneapolis, Minn.) is utilized according to the manufacturer's instructions to measure soluble ALCAM in a urine sample, and quantification is performed by generating a standard curve. Human CD6 ELISA kit (Sandwich ELISA)(LifeSpan BioSciences, Inc, Seattle, Wash.) is utilized according to the manufacturer's instructions to measure soluble CD6 in a urine sample, and quantification is performed by generating a standard curve.\nIn order to determine whether high urinary levels of soluble CD6 and soluble ALCAM can be used as a biomarker for sensitivity to treatment with EQ001, a clinical trial is performed in which concentrations of these markers are analyzed in the urine of subjects with active lupus nephritis before and after treatment with EQ001.\nUrine samples are collected from the subjects biweekly for 2-3 months to establish individual baseline urinary soluble CD6 and soluble ALCAM concentrations. Treatment is initiated after at least five baseline measurements are obtained. Subjects receive EQ001 or vehicle administered intravenously every two weeks for a total of 5 doses, and a urine sample is collected 3 days after initial dosing, and twice weekly thereafter over the course of the study, which continues for 20 weeks post-initial treatment.\nAs described above, immediately after collection, samples are treated, aliquoted, and frozen in accordance with the above method, and upon the completion of the study, samples are tested by ELISA.", "key": {"[1]": {"settings": "Cohort 4, active lupus nephritis, iv every two weeks, 5 doses, ELISA"}}}
{"molecule": "EQ001: itolizumab, humanized anti-CD6 antibody, produced in CHO cells; VH/VK SEQ ID NOS: 1 and 2 (antibody, V domains shown, Made in Lab - synthesized VH amino acid sequence; Made in Lab - synthesized VK amino acid sequence) VH: EVQLVESGGGLVKPGGSLKLSCAASGFKFSRYAMSWVRQAPGKRLEWVATISSGGSYIYYPDSVKGRFTISRDNVKNTLYLQMSSLRSEDTAMYYCARRDYDLDYFDSWGQGTLVTVSS VL: DIQMTQSPSSLSASVGDRVTITCKASRDIRSYLTWYQQKPGKAPKTLIYYATSLADGVPSRFSGSGSGQDYSLTISSLESDDTATYYCLQHGESPFTLGSGTKLEIK", "values": [{"measurement": "urinary soluble ALCAM levels", "setting": "[1]", "result": "significant decreases"}, {"measurement": "urinary soluble CD6 levels", "setting": "[1]", "result": "significant decreases"}, {"measurement": "response to treatment by basal soluble CD6 and soluble ALCAM", "setting": "subjects with the highest basal levels", "result": "respond most dramatically"}]}
